These results are taken from US20250163144A1.

The target of assay [1] is CD38 (human) (UniProt P28907). The experiment in a line: flow cytometry on KMS-12 cells.
Assay [2] addresses CD38 (human) (UniProt P28907). As to the kind of experiment: flow cytometry on KMS-18 cells.

Consider Anti-CD38 HIT2 mAb (antibody), for which the MFI in assay [1] worked out at 62.4 MFI; in assay [2] it was 44.5 MFI.
